{"source": "patent US20090214663A1", "about": "(published 2009)", "binders": {"B1": {"name": "Moloney murine leukemia virus (Mo-MLV) envelope protein, in virus membranes coated onto 100 nm carboxylate-modified fluorescent nanoparticles (Mo-NP) (other)", "chain": "ASPGSSPHQVYNITWEVTNGDRETVWATSGNHPLWTWWPDLTPDLCMLAHHGPSYWGLEYQSPFSSPPGPPCCSGGSSPGCSRDCEEPLTSLTPRCNTAWNRLKLDQTTHKSNEGFYVCPGPHRPRESKSCGGPDSFYCAYWGCETTGRAYWKPSSSWDFITVNNNLTSDQAVQVCKDNKWCNPLVIRFTDAGRRVTSWTTGHYWGLRLYVSGQDPGLTFGIRLRYQNLGPRVPIGPNPVLADQQPLSKPKPVKSPSVTKPPSGTPLSPTQLPPAGTENRLLNLVDGAYQALNLTSPDKTQECWLCLVAGPPYYEGVAVLGTYSNHTSAPANCSVASQHKLTLSEVTGQGLCIGAVPKTHQALCNTTQTSSRGSYYLVAPTGTMWACSTGLTPCISTTILNLTTDYCVLVELWPRVTYHSPSYVYGLFERSNRHKREPVSLTLALLLGGLTMGGIAAGIGTGTTALMATQQFQQLQAAVQDDLREVEKSISNLEKSLTSLSEVVLQNRRGLDLLFLKEGGLCAALKEECCFYADHTGLVRDSMAKLRERLNQRQKLFESTQGWFEGLFNRSPWFTTLISTIMGPLIVLLMILLFGPCILNRLVQFVKDRISVVQAL", "notes": "Native env in virus membranes released by osmotic shock and sonication, then extruded over nanoparticles; In the β-lactamase experiments the particle core also carried covalently coupled B. cereus penicillinase; also called Mo-nanoparticles; Mo env-coated nanoparticles"}}, "target": "T1, mCAT-1 receptor expressed on HEK 293 cells (stable cell line) (mouse, UniProt Q09143 1-622)", "T1 construct": "whole, on cells", "T1 sequence (Q09143 whole entry)": "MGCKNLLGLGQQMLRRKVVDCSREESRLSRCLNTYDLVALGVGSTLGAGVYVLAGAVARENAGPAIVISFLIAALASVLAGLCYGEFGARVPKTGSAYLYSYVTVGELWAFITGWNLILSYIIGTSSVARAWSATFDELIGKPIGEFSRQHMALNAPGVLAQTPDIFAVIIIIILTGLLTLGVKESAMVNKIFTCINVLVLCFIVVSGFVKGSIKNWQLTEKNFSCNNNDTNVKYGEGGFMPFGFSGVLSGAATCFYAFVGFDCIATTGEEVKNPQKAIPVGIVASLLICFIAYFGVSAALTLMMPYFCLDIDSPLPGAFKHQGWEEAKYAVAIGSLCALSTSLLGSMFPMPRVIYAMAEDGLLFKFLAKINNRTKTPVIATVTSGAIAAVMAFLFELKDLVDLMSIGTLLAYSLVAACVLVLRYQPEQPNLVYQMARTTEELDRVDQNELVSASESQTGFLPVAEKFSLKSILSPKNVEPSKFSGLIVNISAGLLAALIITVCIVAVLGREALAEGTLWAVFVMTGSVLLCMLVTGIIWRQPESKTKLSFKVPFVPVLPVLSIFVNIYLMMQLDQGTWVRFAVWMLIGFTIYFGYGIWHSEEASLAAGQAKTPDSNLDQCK", "test": "fluorescence microscopy, counting of green fluorescent Mo-NP bound per cell after 2.5 h at 37 C; 120 cells per cell line"}
{"binder": "B1", "values": [{"measurement": "fold more Mo-NP bound than by cells lacking the receptor", "value": 26, "unit": "fold"}]}
